Measurements published in paper doi:10.1101/2020.01.27.920827 (bioRxiv, 2020).
Residue numbers refer to the chain shown, from its start. In names and notes the source's numbering stands.

Key:
[1] = biological target: the molecule itself; test: SDS-resistant oligomer bands on SDS-PAGE after liposome co-sedimentation
FRET or BRET = biological target: the molecule itself; test: FRET or BRET

B1: epsin1 ENTH domain, wild type (Rat Epsin1 WT ENTH 1-164) (domain or fragment)
chain: MSTSSLRRQMKNIVHNYSEAEIKVREATSNDPWGPSSSLMSEIADLTYNVVAFSEIMSMIWKRLNDHGKNWRHVYKAMTLMEYLIKTGSERVSQQCKENMYAVQTLKDFQYVDRDGKDQGVNVREKAKQLVALLRDEDRLREERAHALKTKEKLAQTATASSAA
B1: binds [1].

B2: ENTH WT (C96A A155C) domain, labelled with Atto488 maleimide or Atto532 maleimide (domain or fragment)
chain: B1 chain with C96A, A155C
modifications: Atto488 maleimide (donor population) or Atto532 maleimide (acceptor population), by cysteine modification
B2: binds (FRET or BRET).
